B1: 1A3A4.312 (antibody, V domains shown)
VH: QVQLVQSGAEVKKPGASVKVSCKASGYTFTRHYMHWVRQAPGQGLEWMGIINPGGGATSYAQKFQGRVTMTRDTSTSTVYMELSSLRSEDTAVYYCAREDYAGKWWGMDYWGQGTLVTVSS
VL: not shown
notes: Phage-derived TROP2 clone; also called 1A3A4.312[TROP2]_H1 with L1
B2: 1B2A4.312 (antibody, V domains shown)
VH: QVQLVQSGAEVKKPGASVKVSCKASGYTFTGSYMHWVRQAPGQGLEWMGIINPSGESTVYAQKFQGRVTMTRDTSTSTVYMELSSLRSEDTAVYYCARDPGGSWPFSYALDYWGQGTLVTVSS
VL: not shown
notes: Phage-derived TROP2 clone; also called 1B2A4.312[TROP2]_H1 with L1
B3: 2C5A3.316 (antibody, V domains shown)
VH: QVQLVQSGAEVKKPGSSVKVSCKASGGTFTTSGISWVRQAPGQGLEWMGGIVPLLGTVNYAQKFQGRVTITADESTSTAYMELSSLRSEDTAVYYCARSGAATDARYGLDYWGQGTLVTVSS
VL: not shown
notes: Phage-derived TROP2 clone; also called 2C5A3.316[TROP2]_H1 with L1
B4: 1B11A3.316 (antibody, V domains shown)
VH: QVQLVQSGAEVKKPGASVKVSCKASGYTFTRYYMHWVRQAPGQGLEWMGIINPGGGSTIYAQKFQGRVTMTRDTSTSTVYMELSSLRSEDTAVYYCARDDVIVDAFDYWGQGTLVTVSS
VL: not shown
notes: Phage-derived TROP2 clone; also called 1B11A3.316[TROP2]_H1 with L1
B5: 1C9A4.313 (antibody, V domains shown)
VH: QVQLVQSGAEVKKPGSSVKVSCKASGGTFSNYAIGWVRQAPGQGLEWMGGIVPIFGVADYAQKFQGRVTITADESTSTAYMELSSLRSEDTAVYYCAREGWYLLNYFDYWGQGTLVTVSS
VL: not shown
notes: Phage-derived TROP2 clone; also called 1C9A4.313[TROP2]_H1 with L1
B6: 1F11-1A3.315_H1L1 (antibody, V domains shown)
VH: QVQLVQSGAEVKKPGASVKVSCKASGYTFTRYYMHWVRQAPGQGLEWMGIINPGGGSTGYAQKFQGRVTMTRDTSTSTVYMELSSLRSEDTAVYYCARDDVVAADVFDYWGQGTLVTVSS
VL: not shown
notes: also called 1F11-1A3.315[Trop2]_H1 with L1; copies: 1 + 1
B7: 1F11-1A3.315_H1.19_L1 (antibody, V domains shown)
VH: B6 VH with F29L, N52E, G59T, A103K
VL: not shown
notes: also called 1F11-1A3.315[Trop2]_H1.19 with L1
B8: 1F11-1A3.315_H1.10_L1 (antibody, V domains shown)
VH: B6 VH with N52E, G59T
VL: not shown
notes: also called 1F11-1A3.315[Trop2]_H1.10 with L1
B9: 1A7_H1.129_IGKV1-39_L1 (Fab, V domains shown)
VH: EVQLLESGGGLVQPGGSLRLSCAASGFTFSSYYMSWVRQAPGKGLEWVSTISERADSTYYADSVKGRFTISRDNSKNTLYLQMNSLRAEDTAVYYCAKSGPGLRQVGFDYWGQGTLVTVSS
VL: not shown
notes: Constant domains not specified for the assay; also called 1A7[CD28]_H1.129 paired with IGKV1-39 germline VL; 1F11-1A3.315 L1 as common light chain
B10: 1A7_H1.125_IGKV1-39_L1 (Fab, V domains shown)
VH: B9 VH with R54H, A55G, D56L
VL: not shown
notes: also called 1A7[CD28]_H1.125 paired with IGKV1-39 germline VL (1F11-1A3.315 L1)
B11: 1A7_H1.130_IGKV1-39_L1 (Fab, V domains shown)
VH: B9 VH with A55G, S57V
VL: not shown
notes: also called 1A7[CD28]_H1.130 paired with IGKV1-39 germline VL (1F11-1A3.315 L1)
B12: 1A7_H1.118_IGKV1-39_L1 (Fab, V domains shown)
VH: B9 VH with S52A, R54S, A55G, S57P
VL: not shown
notes: also called 1A7[CD28]_H1.118 paired with IGKV1-39 germline VL
B13: 1A7_H1.113_IGKV1-39_L1 (Fab, V domains shown)
VH: B9 VH with A55T
VL: not shown
notes: also called 1A7[CD28]_H1.113 paired with IGKV1-39 germline VL (1F11-1A3.315 L1)
B14: 1A7_H1.106_IGKV1-39_L1 (Fab, V domains shown)
VH: B9 VH with A55G
VL: not shown
notes: also called 1A7[CD28]_H1.106 paired with IGKV1-39 germline VL (1F11-1A3.315 L1)
B15: 1A7_H1.111_IGKV1-39_L1 (Fab, V domains shown)
VH: B9 VH with A55S
VL: not shown
notes: also called 1A7[CD28]_H1.111 paired with IGKV1-39 germline VL (1F11-1A3.315 L1)
B16: 1A7_H1.114_IGKV1-39_L1 (Fab, V domains shown)
VH: B9 VH with S52A, A55G
VL: not shown
notes: also called 1A7[CD28]_H1.114 paired with IGKV1-39 germline VL (1F11-1A3.315 L1)
B17: 1A7_H1.107_IGKV1-39_L1 (Fab, V domains shown)
VH: B9 VH with R54S, A55S, S57V
VL: not shown
notes: also called 1A7[CD28]_H1.107 paired with IGKV1-39 germline VL (1F11-1A3.315 L1)
B18: 1F11-1A3.315[Trop2]_H1.31_L1 (antibody, V domains shown)
VH: B6 VH with F29L, M34V, N52E, G59D, A103K
VL: not shown
B19: 1F11-1A3.315[Trop2]_H1.28_L1 (antibody, V domains shown)
VH: B6 VH with F29L, N52E, G59L, V102T
VL: not shown
B20: 1F11-1A3.315[Trop2]_H1.30_L1 (antibody, V domains shown)
VH: B6 VH with F29L, M34V, N52E, G59L, V102T
VL: not shown
B21: 1F11-1A3.315[Trop2]_H1.29_L1 (antibody, V domains shown)
VH: B6 VH with F29L, M34V, N52E, G59D, V102T
VL: not shown
B22: 1A7_H1.14_L1.71 (antibody, V domains shown)
VH: B9 VH with R54S, A55G
VL: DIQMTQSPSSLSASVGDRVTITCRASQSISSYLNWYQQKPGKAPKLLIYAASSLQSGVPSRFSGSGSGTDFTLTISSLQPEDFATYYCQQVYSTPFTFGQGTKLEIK
notes: also called 1A7[CD28]_H1.14_L1.71

For 22 molecules, Kd, koff and kon results are on record in patent publication US20250084179A1 (Xencor, published 2025).

Residue numbers refer to the chain shown, from its start.

The first experiment has as its target T1, TROP2 (UniProt P09758 27-274, limits assumed).
T1 construct: also called tumor-associated calcium signal transducer 2; TACSTD2
T1 sequence (looked up): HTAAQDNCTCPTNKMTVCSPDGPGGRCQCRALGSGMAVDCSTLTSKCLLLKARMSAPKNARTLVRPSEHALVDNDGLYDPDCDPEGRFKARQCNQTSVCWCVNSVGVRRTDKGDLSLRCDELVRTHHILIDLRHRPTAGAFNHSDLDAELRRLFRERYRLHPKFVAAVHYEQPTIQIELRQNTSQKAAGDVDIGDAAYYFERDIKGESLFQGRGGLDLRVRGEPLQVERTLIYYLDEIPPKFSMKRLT
The experiment is described as follows: KD; method and format not stated.
The molecule B1 registered a Kd of 80 nM.
Still for that read-out and setting: next, B2: 64 nM; B3: 345 nM; B4: 54 nM.
Same read-out and setting: with B5 the figure was 40 nM.

The next experiment addresses T1, TROP2. The experiment is described as follows: monovalent KD; method not stated.
Regarding B6, the Kd came out at 13 nM.
Molecule B7 yielded a Kd of 2 nM.
The same measure, in the same setting: next, B8: 5 nM.

The target of a further experiment is T2, human CD28 (human, UniProt P10747 19-152, limits assumed).
T2 construct: also called Cluster of Differentiation 28; Tp44
As to the kind of experiment: Octet, monovalent KD of Fab.
The molecule B9 displayed a Kd of 21 nM.
The same measure, in the same setting: next, B10: 28 nM; B11: 46 nM; B12: 63 nM.
The same measure, in the same setting: next, B13: 29 nM; B14: 43 nM.
Turning to B15, the Kd came to 20 nM.
Still for that read-out and setting: next, B16: 44 nM; B17: 57 nM.

A further experiment deals with T3, Cyno TROP2 (Macaca fascicularis, UniProt A0A2K5UE71).
T3 construct: Construct used in the measurement is not described; also called cynomolgus TROP2
T3 sequence (antigen): T1 sequence (looked up) with M36V, K46E, S67N, I204V
As to the kind of experiment: not stated; bivalent format.
For orientation: koff means a measure of how fast the partners let go of each other. Read a high koff as a short-lived complex. What is called kon is the second-order rate constant of association. Read a high kon as fast association. Molecule B6 came in with a Kd of 9.9 nM, a koff of 0.0021 s⁻¹ and a kon of 210000 M⁻¹ s⁻¹.
Molecule B18 yielded a Kd of 0.48 nM, a koff of 0.00014 s⁻¹ and a kon of 300000 M⁻¹ s⁻¹.
On the same counts, the results for B19 are 2.1 nM, 0.00055 s⁻¹ and 270000 M⁻¹ s⁻¹.
On the same counts, the results for B20 are 3.7 nM, 0.00055 s⁻¹ and 150000 M⁻¹ s⁻¹.
On the same counts, the results for B7 are 0.46 nM, 0.0002 s⁻¹ and 450000 M⁻¹ s⁻¹.
B8 showed a Kd of 1.5 nM, a koff of 0.00053 s⁻¹ and a kon of 340000 M⁻¹ s⁻¹.
Taken in the same sequence, the figures for B21 were 2.1 nM, 0.00038 s⁻¹ and 190000 M⁻¹ s⁻¹.

In the next experiment the target is T1, TROP2. As to the kind of experiment: not stated; bivalent format.
B6 showed a Kd of 6.5 nM, a koff of 0.0012 s⁻¹ and a kon of 190000 M⁻¹ s⁻¹.
In turn, B18 came in with a Kd of 0.43 nM, a koff of 0.00013 s⁻¹ and a kon of 300000 M⁻¹ s⁻¹.
Taken in the same sequence, the figures for B19 were 1.9 nM, 0.00036 s⁻¹ and 210000 M⁻¹ s⁻¹.
On the same counts, the results for B20 are 2.2 nM, 0.00037 s⁻¹ and 170000 M⁻¹ s⁻¹.
Take B7: the Kd amounted to 0.25 nM, the koff was determined as 0.0001 s⁻¹ and the kon was found to be 410000 M⁻¹ s⁻¹.
The molecule B8 gave a Kd of 0.98 nM, a koff of 0.00033 s⁻¹ and a kon of 330000 M⁻¹ s⁻¹.
For the molecule B21, the Kd was found to be 2.1 nM, the koff was found to be 0.00029 s⁻¹ and the kon is 150000 M⁻¹ s⁻¹.

The target in a further experiment is T2, human CD28. The experiment is described as follows: Octet, monovalent KD; format of this comparator not stated. For orientation: Biolayer interferometry detects binding as a change in optical thickness at a sensor tip.
The molecule B22 yielded a Kd of 38 nM.

The target of another experiment is T2, human CD28. As to the kind of experiment: another set of experiments; monovalent Fab, method not restated (Octet for the FIG. 35 data).
In turn, B9 displayed a Kd of 60 to 70 nM.
Molecule B12 registered a Kd of about 400 nM.

Another experiment has as its target T2, human CD28. The experiment is described as follows: not stated; value printed beside the name in the 'CD28 Mutations' cell, apparently a reference affinity of this domain.
With B22, the Kd turned out to be 37 nM.
